Source: patent US7910550B2, “Human kunitz-type inhibitor with enhanced antifibrinolytic activity” (STC.UNM, priority 2004, dated 2011)

Legend:
[1] = tested on: human umbilical vein endothelial cells (HUVECs); experiment: In vitro human endothelial cell angiogenesis assay (capillary tube formation on ECMATRIX); type: cell-based; details: for inhibition of angiogenesis (capillary-like tube formation): HUVECs on matrix
Description: The angiogenesis assay is commercially available from Chemicon International, Inc. (Temecula, Calif.), and involves growing human umbilical vein endothelial cells (HUVECs) on a proprietary matrix, followed by assessing angiogenesis on this matrix by counting new branch points in sprouting endothelial cells.
A semi-quantitative assay for in vitro angiogenesis was utilized. Human umbilical vein endothelial cells (HUVEC, Clonetics Corp., Walkersville, Md.) were maintained in 25 cm^2 flasks in EGM-2 media (Clonetics Corp.) supplemented with 2% fetal bovine serum, gentamicin, amphotericin-B, hEGF, hydrocortisone, VEGF, hFGF-B, R^3-IGF-1, ascorbic acid and heparin. For assay, a 48-well tissue culture plate was coated with 100 μl of ECMATRIX (Chemicon International, Inc., Temecula, Calif.) followed by incubation at 37° C. for one hour. Approximately 5×10^4 cells were then seeded onto the surface of the polymerized matrix. Varying concentrations of full-length human TFPI-2, diluted in EGM-2 media and filtered, were added to the wells and plate was placed in 37° C.-humidified CO2 incubator. Each treatment was performed in duplicate wells. Separately, VEGF was used as a positive control. The three-dimensional organization of cells was examined every hour under an inverted photomicroscope. The capillary tube branch point formation was counted in each well following eight hours of incubation. For each concentration, eight randomly chosen areas under 250× magnified field were observed. The results are expressed as number of branching points (mean±SEM) and the differences between each mean value was tested by one way analysis of variance (ANOVA). Statistically p-value <0.05 was accepted.
To examine the effect of full-length human TFPI-2 on morphogenesis (capillary-like tube formation) of endothelial cells, HUVECs were seeded on the matrigel and treated with full-length human TFPI-2 (0.2 μM-5 μM).

[2] = tested on: FGF-2-induced angiogenesis; experiment: FGF-2-induced cornea pocket assay; type: in vivo; details: preliminary studies
HT-1080 cells = experiment: Gene expression by Oligo GEARRAY Human Apoptosis Microarray; type: cell-based
Method: To study the gene expression profiles of proteins involved in apoptosis, approximately 2×10^7 cells were grown to confluence and treated with either recombinant R24K KD1 or vehicle for 24 hours and 48 hours. After the treatment, the cells were harvested and total RNA was purified using the RNEASY RNA extraction kit according to the manufacturer's instruction. The purified RNA samples were further digested using an on-column DNase digestion with RNase-free DNase-I to ensure complete removal of any contaminating genomic or mitochondrial DNA. The pathway-specific microarray was carried out using 3 μg of total RNA to generate biotin-labeled cRNA using TRUELABELING-AMP from SABiosciences Corp. (Frederick, Md.). TRUELABELING-AMP 2.0 from (SABiosciences Corp., Frederick, Md.) was used to rapidly amplify and label antisense RNA for hybridization. Three micrograms of labeled cRNA was used for hybridization with an Oligo GEARRAY Human Apoptosis Microarray consisting of 112 genes. Following incubation with CDP-STAR, the chemiluminescent array image was captured by a cooled CCD camera (Alpha Innotech Corp., San Leandro, Calif.). All images were saved as electronic files in a grayscale, 8 or 16 bit TIFF file format and analyzed using a GEARRAY Expression Analysis Suite. Data were normalized using minimum value background subtraction and interquartile normalization. Minimum value is the lowest density spot on the array and the average across the spot was used as the background correction value and is subtracted from the intensity value for each spot on the array. Interquartile uses only genes between the 25% and 75% quartile and the average intensity value of these spots is used for normalization of all the genes (intensity value of each gene is divided by this mean intensity value). The pUC19 plasmid was used as the negative control in the array.

[3] = tested on: human colorectal cancer cell line (Colo-205); experiment: Caspase activation in Colo-205 cells; type: cell-based; details: 48 hour exposure, 1 μM

B1: TFPI-2: Human tissue factor pathway inhibitor-2, 213 amino acid polypeptide with three tandem Kunitz-type domains (SEQ ID NO:1) (protein, listed as Homo sapiens)
chain: DAAQEPTGNNAEICLLPLDYGPCRALLLRYYYDRYTQSCRQFLYGGCEGNANNFYTWEACDDACWRIEKVPKVCRLQVSVDDQCEGSTEKYFFNLSSMTCEKFFSGGCHRNRIENRFPDEATCMGFCAPKKIPSFCYSPKDEGLCSANVTRYYFNPRYRTCDAFTYTGCGGNDNNFVSREDCKRACAKALKKKKKMPKLRFASRIRKIRKKQF
capillary-like tube formation ([1]; 5 μM, overnight incubation): no complete tube formation even after overnight incubation | inhibition of angiogenesis (capillary-like tube formation) [1]: significantly inhibited the capillary-like tube formation of HUVECs in a dose-dependent manner | inhibition of angiogenesis (capillary-like tube formation) ([1]; listed as wild-type TFPI-2): inhibit angiogenesis | anti-angiogenic effect [2]: potent and dose-dependent anti-angiogenic effect

B2: R24K KD1: KD1 with lysine in place of arginine at position 24 (SEQ ID NO:3) (protein)
chain: DAAQEPTGNNAEICLLPLDYGPCKALLLRYYYDRYTQSCRQFLYGGCEGNANNFYTWEACDDACWRIEKVPKV
modifications: mutated active domain
Fold change BAG3, Group 2 vs. Group 1 (HT-1080 cells; Group 2 vs. Group 1): 0.60 fold | Fold change BAK1, Group 2 vs. Group 1 (HT-1080 cells; Group 2 vs. Group 1): 1.78 fold | Fold change BAX, Group 2 vs. Group 1 (HT-1080 cells; Group 2 vs. Group 1): 3.09 fold | Fold change BCL2, Group 2 vs. Group 1 (HT-1080 cells; Group 2 vs. Group 1): 0.65 fold | Fold change BCL2A1, Group 2 vs. Group 1 (HT-1080 cells; Group 2 vs. Group 1): 2.02 fold | Fold change BCLAF1, Group 2 vs. Group 1 (HT-1080 cells; Group 2 vs. Group 1): 0.74 fold | Fold change BFAR, Group 2 vs. Group 1 (HT-1080 cells; Group 2 vs. Group 1): 0.34 fold | Fold change BNIP3, Group 2 vs. Group 1 (HT-1080 cells; Group 2 vs. Group 1): 1.71 fold | Fold change CARD6, Group 2 vs. Group 1 (HT-1080 cells; Group 2 vs. Group 1): 2.31 fold | Fold change CARD11, Group 2 vs. Group 1 (HT-1080 cells; Group 2 vs. Group 1): 1.54 fold | Fold change CASP4, Group 2 vs. Group 1 (HT-1080 cells; Group 2 vs. Group 1): 1.18 fold | Fold change CASP9, Group 2 vs. Group 1 (HT-1080 cells; Group 2 vs. Group 1): 1.50 fold | Fold change CD40, Group 2 vs. Group 1 (HT-1080 cells; Group 2 vs. Group 1): 4.74 fold | Fold change CIDEB, Group 2 vs. Group 1 (HT-1080 cells; Group 2 vs. Group 1): 2.25 fold | Fold change GADD45A, Group 2 vs. Group 1 (HT-1080 cells; Group 2 vs. Group 1): 1.88 fold | Fold change LTA, Group 2 vs. Group 1 (HT-1080 cells; Group 2 vs. Group 1): 75.31 fold | Fold change LTBR, Group 2 vs. Group 1 (HT-1080 cells; Group 2 vs. Group 1): 1.38 fold | Fold change MCL1, Group 2 vs. Group 1 (HT-1080 cells; Group 2 vs. Group 1): 1.46 fold | Fold change TNFRSF1B, Group 2 vs. Group 1 (HT-1080 cells; Group 2 vs. Group 1): 1.59 fold | Fold change TNFRSF10B, Group 2 vs. Group 1 (HT-1080 cells; Group 2 vs. Group 1): 1.68 fold | Fold change TNFRSF25, Group 2 vs. Group 1 (HT-1080 cells; Group 2 vs. Group 1): 1.27 fold | Fold change TRADD, Group 2 vs. Group 1 (HT-1080 cells; Group 2 vs. Group 1): 1.92 fold | Fold change TRAF4, Group 2 vs. Group 1 (HT-1080 cells; Group 2 vs. Group 1): 3.79 fold | Fold change BAG3, Group 3 vs. Group 1 (HT-1080 cells; Group 3 vs. Group 1): 0.44 fold | Fold change BAK1, Group 3 vs. Group 1 (HT-1080 cells; Group 3 vs. Group 1): 1.74 fold | Fold change BAX, Group 3 vs. Group 1 (HT-1080 cells; Group 3 vs. Group 1): 3.97 fold | Fold change BCL2, Group 3 vs. Group 1 (HT-1080 cells; Group 3 vs. Group 1): 0.12 fold | Fold change BCL2A1, Group 3 vs. Group 1 (HT-1080 cells; Group 3 vs. Group 1): 2.09 fold | Fold change BCL2L13, Group 3 vs. Group 1 (HT-1080 cells; Group 3 vs. Group 1): 1.61 fold | Fold change BCLAF1, Group 3 vs. Group 1 (HT-1080 cells; Group 3 vs. Group 1): 0.41 fold | Fold change BFAR, Group 3 vs. Group 1 (HT-1080 cells; Group 3 vs. Group 1): 0.25 fold | Fold change BNIP3, Group 3 vs. Group 1 (HT-1080 cells; Group 3 vs. Group 1): 1.69 fold | Fold change CARD6, Group 3 vs. Group 1 (HT-1080 cells; Group 3 vs. Group 1): 3.62 fold | Fold change CARD11, Group 3 vs. Group 1 (HT-1080 cells; Group 3 vs. Group 1): 4.36 fold | Fold change CASP4, Group 3 vs. Group 1 (HT-1080 cells; Group 3 vs. Group 1): 2.28 fold | Fold change CASP9, Group 3 vs. Group 1 (HT-1080 cells; Group 3 vs. Group 1): 3.22 fold | Fold change CD40, Group 3 vs. Group 1 (HT-1080 cells; Group 3 vs. Group 1): 63.39 fold | Fold change CIDEB, Group 3 vs. Group 1 (HT-1080 cells; Group 3 vs. Group 1): 1.77 fold | Fold change GADD45A, Group 3 vs. Group 1 (HT-1080 cells; Group 3 vs. Group 1): 5.56 fold | Fold change LTA, Group 3 vs. Group 1 (HT-1080 cells; Group 3 vs. Group 1): 15.94 fold | Fold change LTBR, Group 3 vs. Group 1 (HT-1080 cells; Group 3 vs. Group 1): 1.88 fold | Fold change MCL1, Group 3 vs. Group 1 (HT-1080 cells; Group 3 vs. Group 1): 2.20 fold | Fold change TNFRSF1B, Group 3 vs. Group 1 (HT-1080 cells; Group 3 vs. Group 1): 2.10 fold | Fold change TNFRSF10B, Group 3 vs. Group 1 (HT-1080 cells; Group 3 vs. Group 1): 1.71 fold | Fold change TNFRSF25, Group 3 vs. Group 1 (HT-1080 cells; Group 3 vs. Group 1): 2.08 fold | Fold change TRADD, Group 3 vs. Group 1 (HT-1080 cells; Group 3 vs. Group 1): 2.07 fold | Fold change TRAF4, Group 3 vs. Group 1 (HT-1080 cells; Group 3 vs. Group 1): 4.05 fold | caspase activation [3]: caspase activation
